Earlier results on one substance are cited in patent US10857230B2, “Co-therapy comprising a small molecule CSF-1R inhibitor and an agonistic antibody that specifically binds CD40 for the treatment of cancer” (Janssen Biotech, Inc., priority 2017, dated 2020).

For series [1] the following is noted: patient clinical trials; day of antibody intravenous infusion; cited from earlier work.
For series [2], the system named is B cells and dendritic cells. The following applies: cited from earlier work.

“CP-870,893: cross-linking independent agonistic CD40 antibody; VH and VL of SEQ ID NOs: 44 and 45, may be IgG2”: the “most common side effects” value in series [1] is reported as “moderate CRS”. Moreover, the “potency in activating B cells relative to dendritic cells” value in series [2] is “about 20 fold”.
